Interaction score data for one molecule are collected here from publication PMC10397247.

Common to all, as to assay: two-hybrid library CCNG1;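 further: natural log of median RNA to DNA barcode read ratio; higher means stronger binding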
For one assay, the target named is T1, 4H1338-bN.
T1 chain: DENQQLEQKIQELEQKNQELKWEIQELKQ

Another assay deals with T2, 4H1348-bN.
T2 chain: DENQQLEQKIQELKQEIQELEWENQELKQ

The next assay addresses T3, 4H1373-bN.
T3 chain: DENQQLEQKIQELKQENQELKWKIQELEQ

The target in a further assay is T4, 4H1449-bN.
T4 chain: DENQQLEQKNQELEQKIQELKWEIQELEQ

Another assay has as its target T5, 4H1544-bN.
T5 chain: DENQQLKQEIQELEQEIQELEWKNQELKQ

A further assay addresses T6, 4H1710-bN.
T6 chain: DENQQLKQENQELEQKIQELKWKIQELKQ

A further assay concerns the target T7, 4H1899-bN.
T7 chain: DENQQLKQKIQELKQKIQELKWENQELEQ

Another assay concerns the target T8, 4H1985-bN.
T8 chain: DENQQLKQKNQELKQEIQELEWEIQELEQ

For another assay, the target named is T9, 4H2702-bA.
T9 chain: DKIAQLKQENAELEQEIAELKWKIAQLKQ

The target of another assay is T10, 4H3613-bN.
T10 chain: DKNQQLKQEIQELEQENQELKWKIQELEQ

For another assay, the target named is T11, 4H3628-bN.
T11 chain: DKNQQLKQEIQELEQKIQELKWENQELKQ

Another assay has as its target T12, 4H3817-bN.
T12 chain: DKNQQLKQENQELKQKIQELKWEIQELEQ

For a further assay, the target named is T13, 4H3858-bN.
T13 chain: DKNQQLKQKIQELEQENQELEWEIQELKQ

Another assay deals with T14, 4H3974-bN.
T14 chain: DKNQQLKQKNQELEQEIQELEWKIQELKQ

A further assay has as its target T15, 4H570-bN.
T15 chain: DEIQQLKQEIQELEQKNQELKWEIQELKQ

The next assay has as its target T16, 4H850-bN.
T16 chain: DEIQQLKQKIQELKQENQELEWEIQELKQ

As to DENQQLEQKIQELEQKNQELKWEIQELKQ [4H1338-bN], the interaction score with 4H1338-bN was 0.0248; with 4H1348-bN it was -1.29; with 4H1373-bN, -1.16; in the assay with 4H1449-bN, -0.847; with 4H1544-bN it was 0.114; with 4H1710-bN, -0.345. The interaction score in the assay with 4H1899-bN is -2.73; with 4H1985-bN, -0.88; with 4H2702-bA, -2.23; with 4H3613-bN it was -0.479; in the assay with 4H3628-bN, -0.229; with 4H3817-bN, -0.326. For the same molecule, the interaction score with 4H3858-bN was 1.37; with 4H3974-bN, -0.674; with 4H570-bN it was -0.567; with 4H850-bN, 0.8.
